For one substance, stoichiometry N results are on record in article doi:10.1101/776245.

The target in this assay is SERP2475 (Nhi), full-length (Staphylococcus epidermidis RP62a). The assay can be described thus: SEC. In general terms: Size exclusion chromatography separates by hydrodynamic size, large species first.

What is called stoichiometry N is a count of units in the complex or per binding partner. Turning to SERP2475 (Nhi), full-length (enzyme), the stoichiometry N was 2.
